Assay results: publication PMC4753449, “Conformational plasticity of RepB, the replication initiator protein of promiscuous streptococcal plasmid pMV158” (Scientific Reports, 2016)

B1: RepB, rolling-circle replication initiator protein of plasmid pMV158 (hexamer) (natural protein, UniProt P13921 1-210, looked up)
chain: MAKEKARYFTFLLYPESIPSDWELKLETLGVPMAISPLHDKDKSSIKGQKYKKAHYHVLYIAKNPVTADSVRKKIKLLLGEKSLAMVQVVLNVENMYLYLTHESKDAIAKKKHVYDKADIKLINNFDIDRYVTLDVEEKTELFNVVVSLIRAYTLQNIFDLYDFIDENGETYGLTINLVNEVIAGKTGFMKLLFDGAYQRSKRGTKNEER
notes: RepB, replication initiator protein encoded by the promiscuous plasmid pMV158, originally isolated from Streptococcus agalactiae; 24 kDa polypeptide; OBD (N-terminal) and OD (C-terminal) domains; the OD construct ends at residue 210; The final model of 4U87 comprises residues 3-204 of three protomers in the asymmetric unit; also called RepB6; RepB hexamer
B2: RepB OD (oligomerisation domain, residues 127 to 210) (domain or fragment, UniProt P13921 127-210, looked up)
chain: DIDRYVTLDVEEKTELFNVVVSLIRAYTLQNIFDLYDFIDENGETYGLTINLVNEVIAGKTGFMKLLFDGAYQRSKRGTKNEER
notes: RepB of plasmid pMV158 (Streptococcus agalactiae), oligomerisation domain, residues 127 to 210; theoretical mass of the hexamer 58,300 Da; also called OD-only construct; OD hexamer; source: Escherichia coli M15, purified (Ni-NTA agarose), His-tag removed with TAGZyme; not shown: His6, N-terminal, cleaved

Tests used:
[1] = target: the molecule itself; assay: SAXS; free RepB in solution at 20, 40 and 83 μM RepB6 (12.1, 5.8 and 2.9 mg/mL); 10 mM TRIS pH 8.5, 5 mM EDTA, 1.0 M KCl
[2] = target: the molecule itself; assay: AUC; sedimentation equilibrium, 20 °C, 20 mM NaH2PO4 pH 7.0, 150 mM NaCl; OBD 10-60 μM at 22,000 rpm, OD 10-100 μM at 13,000 rpm; single-species model

Protein | stoichiometry N [1] | stoichiometry N [2]
B1 | 6 | –
B2 | – | 6
